Experimental data: the supplement of paper PMC10567573

B1: PLAGL1 (parent)
chain: CKDFLCQFCAQRFGRKDHLTRHTK

Variants of: B1
Experiment: protein stability index of a GFP-peptide fusion (GPS, HEK-293T) (PSI 1-6); higher = more stable
Settings: c terminus: a fixed tail appended
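Further: lentivirally expressed fusions sorted by FACS into six bins by GFP to DsRed ratio, PSI derived from sequencing read proportions per bin multiplied by bin number.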

Protein stability index, by site and new letter:
L19: F 2.58; P 2.02; Q 2.48; M 2.4; D 3.71; N 1.91; I 2.32; R 2.39; E 1.99; A 2.54; C 2.25; H 2.16; G 2.73; K 3.13
Q11: D 1.75; A 1.84; N 2.01; W 1.76; I 1.82; Y 1.51; F 1.82; G 2.44; K 2.02; V 2.04; C 1.85; R 2.3; E 2.14; H 1.67; S 3.17; P 2.07; T 1.75; M 2.22; L 2.29
H18: W 1.94; D 1.68; V 2.59; A 2.51; P 1.75; S 1.82; E 1.96; N 1.97; M 1.64; Y 2.45; L 1.33; Q 1.96; G 1.95; I 2.07; T 2.25; F 1.49; R 2.35; C 2.6; K 2.25
R12: I 2.6; M 1.94; H 2.38; A 1.97; T 1.88; Q 1.23; F 1.68; L 1.47; D 1.65; W 2.14; C 2.86; G 2.54; S 2.16; V 2.33; N 2.22; Y 2; P 1.81; K 3.04; E 2.13
G14: N 2.46; P 2.46; V 1.99; W 1.77; K 2; Y 1.99; Q 1.98; C 2.37; F 1.79; R 2.12; I 2.08; M 2.59; T 2.09; E 2.78; H 2.13; A 2.63; D 2.14; S 2.72; L 1.96
D17: L 2.03; A 2.28; R 2.37; Q 1.92; P 2.4; C 2.06; V 1.64; N 2.04; T 2.44; F 2.08; H 1.85; W 1.35; S 2.12; Y 1.7; K 1.94; E 2.14; M 1.3; G 1.67; I 2.52
F13: Q 2.45; N 2.35; K 3.02; I 2.02; H 2.31; L 2.44; S 3.21; E 2.86; W 2.33; P 2.35; T 2.23; V 2.03; C 3.07; M 2.88; D 2.65; R 2.54; A 1.91; Y 1.99
K16: N 1.92; W 2.33; G 2.15; T 2.82; Q 2.62; S 1.95; V 2.05; C 2.53; P 2.25; M 1.68; I 2.37; F 2.17; R 2.44; L 2.49; Y 1.86; D 2.35; A 2.67; H 2.39; E 1.93
A10: W 1.67; Y 2.16
R15: I 1.91; G 2.36; E 2.52; H 1.85; D 2.24; K 2.52; Q 1.74; W 1.61; L 2.06; M 1.73; Y 2.38; T 1.93; A 1.82; N 1.83; F 1.79; P 1.66; S 1.73; V 2.3; C 1.82
